In publication PMC3229523, “Identification of Lactoferricin B Intracellular Targets Using an Escherichia coli Proteome Chip” (PLoS ONE, 2011):
Ends that are not written are not given here. * marks the point of attachment. Biotin = O=C1N[C@H]2[C@H](CS[C@H]2CCCCC(=O)*)N1

Tests used:
Experiment in all cases: peptide or protein array; E. coli proteome chip: purified His-tagged proteins printed in duplicate on Fullmoon slides, blocked with 1% BSA; 10 nM N-terminal biotinylated LfcinB with 1% BSA, room temperature, 1 h; detected with DyLight 649-labeled streptavidin, ratio to DyLight 549-labeled anti-His antibody; ProCAT normalisation, local cut-off; triplicate chips
Conditions in all cases: both partners purified
YjeJ = biological target: T1, YjeJ (E. coli K-12, UniProt P39279 1-289)
T1 construct: YjeJ, E. coli K-12
T1 sequence (looked up): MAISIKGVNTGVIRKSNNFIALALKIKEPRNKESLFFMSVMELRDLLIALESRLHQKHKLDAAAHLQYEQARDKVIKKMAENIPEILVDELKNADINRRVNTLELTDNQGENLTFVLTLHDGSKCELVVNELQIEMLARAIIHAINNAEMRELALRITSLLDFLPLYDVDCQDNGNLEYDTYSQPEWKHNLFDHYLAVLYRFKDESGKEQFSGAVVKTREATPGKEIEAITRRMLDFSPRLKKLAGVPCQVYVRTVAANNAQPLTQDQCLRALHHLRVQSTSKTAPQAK

YbbN = biological target: T2, YbbN (E. coli K-12, UniProt P77395 1-284)
T2 construct: YbbN, E. coli K-12
T2 sequence (looked up): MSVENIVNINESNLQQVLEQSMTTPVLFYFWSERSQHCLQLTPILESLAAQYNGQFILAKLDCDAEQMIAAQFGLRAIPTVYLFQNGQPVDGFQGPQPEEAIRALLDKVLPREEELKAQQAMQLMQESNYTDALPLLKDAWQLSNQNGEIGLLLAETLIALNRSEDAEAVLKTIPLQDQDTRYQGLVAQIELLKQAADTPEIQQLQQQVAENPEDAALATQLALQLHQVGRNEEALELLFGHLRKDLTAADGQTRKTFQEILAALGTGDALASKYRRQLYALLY

YhhI = biological target: T3, YhhI (E. coli K-12, UniProt P28912 1-378)
T3 construct: YhhI, E. coli K-12
T3 sequence (looked up): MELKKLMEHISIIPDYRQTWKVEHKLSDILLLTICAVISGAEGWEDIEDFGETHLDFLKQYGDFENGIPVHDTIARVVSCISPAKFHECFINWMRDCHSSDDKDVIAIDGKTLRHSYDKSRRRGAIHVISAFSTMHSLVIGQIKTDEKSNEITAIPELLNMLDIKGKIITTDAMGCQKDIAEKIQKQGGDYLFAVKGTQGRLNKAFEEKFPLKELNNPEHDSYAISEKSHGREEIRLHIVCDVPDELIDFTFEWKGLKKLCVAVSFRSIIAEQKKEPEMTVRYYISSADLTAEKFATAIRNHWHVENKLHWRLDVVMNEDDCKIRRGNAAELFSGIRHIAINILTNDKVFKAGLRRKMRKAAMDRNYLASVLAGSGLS

HemC = biological target: T4, HemC (E. coli K-12, UniProt P06983 1-313)
T4 construct: HemC, E. coli K-12
T4 sequence (looked up): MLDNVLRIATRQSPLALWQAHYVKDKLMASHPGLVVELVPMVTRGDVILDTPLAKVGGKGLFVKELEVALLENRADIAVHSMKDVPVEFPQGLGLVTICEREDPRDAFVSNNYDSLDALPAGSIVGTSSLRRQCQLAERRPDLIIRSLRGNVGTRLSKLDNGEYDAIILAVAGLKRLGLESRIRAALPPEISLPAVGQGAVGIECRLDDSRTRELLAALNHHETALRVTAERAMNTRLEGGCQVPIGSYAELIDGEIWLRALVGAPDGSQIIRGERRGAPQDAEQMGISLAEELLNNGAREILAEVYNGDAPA

YijC = biological target: T5, YijC (E. coli K-12, UniProt P0ACU5 1-234)
T5 construct: YijC, E. coli K-12
T5 sequence (looked up): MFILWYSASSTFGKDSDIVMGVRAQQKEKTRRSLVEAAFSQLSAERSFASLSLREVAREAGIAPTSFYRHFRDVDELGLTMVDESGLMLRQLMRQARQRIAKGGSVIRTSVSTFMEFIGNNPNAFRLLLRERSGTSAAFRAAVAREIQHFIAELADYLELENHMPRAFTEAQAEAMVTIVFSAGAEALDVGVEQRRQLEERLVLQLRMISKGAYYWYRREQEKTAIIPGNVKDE

PurC = biological target: T6, PurC (E. coli K-12, UniProt P0A7D7 1-237)
T6 construct: PurC, E. coli K-12
T6 sequence (looked up): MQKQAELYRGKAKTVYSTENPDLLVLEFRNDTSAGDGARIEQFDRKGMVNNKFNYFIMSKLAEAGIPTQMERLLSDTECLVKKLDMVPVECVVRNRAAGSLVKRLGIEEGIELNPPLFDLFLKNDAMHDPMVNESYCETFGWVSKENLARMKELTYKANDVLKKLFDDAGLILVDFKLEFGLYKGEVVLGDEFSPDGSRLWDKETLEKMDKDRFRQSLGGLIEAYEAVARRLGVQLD

Measured: binding result

B1: N-terminal biotinylated Lactoferricin B (peptide, UniProt P24627 36-60, looked up)
peptide: Biotin-FKCRRWQWRMKKLGAPSITCVRRAF
modifications: ends and bridges not checked
notes: lactoferricin B (LfcinB), cationic antimicrobial peptide of 25 amino acids; also called biotinylated LfcinB; biotin-labeled LfcinB; source: bought: Kelowna Inc
binds: YjeJ | YbbN | YhhI | HemC | YijC | PurC
